Source: patent CN104892754A (INST OF MILITARY VETERINARY ACADEMY OF MILITARY MEDICAL …, dated 2015)

B1: 3A-scFv (scFv)
scFv: EVQLLESGGGLVQPGGSLRLSCAASGFTFSSYAMSWVRQAPGKGLEWVSNISSNGNATAYADSVKGRFTISRNNSKNTLYLQMNSLRAEDTAVYYCAKYTYAFDYWGQGTLVTVSSGGGGSGGGGSGGGGSTDIQMTQSPSSLSASVGDRVTITCRASQSISSYLNWYQQKPGKAPKLLIYYASNLQSGVPSRFSGSGSGTDFTLTISSLQPEDFATYYCQQDSYTPSTFGQGTKVEIKRAAAHHHHHHGAAEQKLISEEDLNGAA
B2: 抗B型肉毒毒素酶活性的人源单链抗体2F-scFv (scFv)
scFv: EVQLLESGGGLVQPGGSLRLSCAASGFTFSSYAMSWVRQAPGKGLEWVSSIASTGSNTAYADSVKGRFTISRNNSKNTLYLQMNSLRAEDTAVYYCAKGTGTFDYWGQGTLVTVSSGGGGSGGGGSGGGGSTDIQMTQSPSSLSASVGDRVTITCRASQSISSYLNWYQQKPGKAPKLLIYTASYLQSGVPSRFSGSGSGTDFTLTISSLQPEDFATYYCQQATTSPYTFGQGTKVEIKRAAAHHHHHHGAEQKLISEEDLNGAA
B3: 4C-scFv (scFv)
scFv: EVQLLESGGGLVQPGGSLRLSCAASGFTFSSYAMSWVRQAPGKGLEWVSGISPMGTRTSYADSVKGRFTISRDNSKNTLYLQMNSLRAEDTAVYYCAKNANGFDYWGQGTLVTVSSGGGGSGGGGSGGGGSTDIQMTQSPSSLSASVGDRVTITCRASQSISSYLNWYQQKPGKAPKLLIYRASVLQSGVPSRFSGSGSGETDFTLTISSLQPEDFATYYCQQRSRPPITFGQGTKVEIKRAAAHHHHHHGAAEQKLISEEDLNGAA

target: T1, 重组蛋白BontB(B型肉毒毒素轻链) (肉毒梭菌 (Clostridium botulinum), UniProt P10844 1-441)
T1 sequence: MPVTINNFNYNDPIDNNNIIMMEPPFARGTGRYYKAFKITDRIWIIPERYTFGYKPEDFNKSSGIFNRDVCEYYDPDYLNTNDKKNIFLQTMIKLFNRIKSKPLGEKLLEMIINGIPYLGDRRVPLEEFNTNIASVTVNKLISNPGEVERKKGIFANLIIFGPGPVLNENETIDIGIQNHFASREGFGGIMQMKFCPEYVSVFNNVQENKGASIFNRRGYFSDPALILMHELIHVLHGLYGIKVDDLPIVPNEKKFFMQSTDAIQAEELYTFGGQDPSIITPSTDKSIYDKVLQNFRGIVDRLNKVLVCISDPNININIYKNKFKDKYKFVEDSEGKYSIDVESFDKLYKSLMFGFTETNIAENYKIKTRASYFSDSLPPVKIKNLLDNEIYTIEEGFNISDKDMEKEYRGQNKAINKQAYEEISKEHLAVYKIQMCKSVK

Binder	Ka
B1	535000 M⁻¹
B2	1.15e+06 M⁻¹
B3	438000 M⁻¹
